What was measured:
[1] = molecular target: T1, TEV protease-mobilized soluble ATD (human, UniProt Q05586 19-561, biotinylated (Sulfo-NHS-Biotin) in the titration on plate-bound 5F5); assay: ELISA, ATD captured on the plate by a Myc tag antibody
T1 construct: also called mobilized ATD; plate-adherent ATD
Method: To test binding of human NR1 antibodies to plate-adherent ATD, we added 5 μg/mL Myc antibody (C3956, Sigma-Aldrich) (100 μl/well) to Black 96-well plates (12-566-24, Thermo Fisher) overnight, washed the plates 3 times with PBST, blocked with 5% inactivated fetal bovine serum and 3% Goat serum (Invitrogen) in PBST for 1 h at 37° C., washed 3 times, added 5 μg/mL ATD, and then incubated for 1 h at 37° C. and washed 3 more times. We added human mAbs, 5F5, 2G6, 1D1, and control isotype 6A at 5 μg/mL (100 μl/well), or 5 μg/mL anti-NR1 mAb (MAB 1586 RUHL, Millipore), in triplicate samples, and incubated for 1 h at 37° C. After three additional PBST washes, secondary antibodies were added, either an anti-human IgG HRP conjugate (9040-05 Southern Biotech, Birmingham, Ala.) or anti-mouse IgG HRP conjugate (1010-05, Southern Biotech), at 1:2000 and incubated for 1 h at 37° C., followed by 3 washes. Super Signal ELISA Femto Substrate was used for detection. Data was collected in the Biotek SYNERGY II Microplate reader and analyzed with Microsoft Excel.

[2] = molecular target: T2, NR1 ATD fusion protein on 293T-ATD cells (human); assay: flow cytometry on 293T-ATD cells, co-stained with commercial anti-NR1 mAb
T2 construct: also called HEK293T-ATD; GluN1-ATD fused to the PDGF receptor transmembrane domain
Method: Primary antibodies included the BIOORBYT APC-labeled NR1 mAb at 10 μg/mL, an ALEXA FLUOR 488 labeled Myc tag mAb at 2 μg/mL (16-308, Millipore, Billerica, Mass.) three human IgG mAbs (5 μg/mL) isolated from a patient with ANRE (5F5, 2G6, 1D1) and the 6A isotype control mAb¹⁴. As a secondary antibody for the human mAbs, we used a FITC-conjugated F(ab′)2 goat anti-human IgG (109-096-008, Jackson ImmunoResearch, West Grove, Pa.). Cells were assayed with a BD FACSCANTO II (Becton Dickson, Franklin Lakes, N.J.). Data were analyzed using FLOWJO 8.8.7. Software (Tree Star, Ashland, Oreg.).

T1 sequence (Q05586 other isoform, or with tags, fused parts or gaps): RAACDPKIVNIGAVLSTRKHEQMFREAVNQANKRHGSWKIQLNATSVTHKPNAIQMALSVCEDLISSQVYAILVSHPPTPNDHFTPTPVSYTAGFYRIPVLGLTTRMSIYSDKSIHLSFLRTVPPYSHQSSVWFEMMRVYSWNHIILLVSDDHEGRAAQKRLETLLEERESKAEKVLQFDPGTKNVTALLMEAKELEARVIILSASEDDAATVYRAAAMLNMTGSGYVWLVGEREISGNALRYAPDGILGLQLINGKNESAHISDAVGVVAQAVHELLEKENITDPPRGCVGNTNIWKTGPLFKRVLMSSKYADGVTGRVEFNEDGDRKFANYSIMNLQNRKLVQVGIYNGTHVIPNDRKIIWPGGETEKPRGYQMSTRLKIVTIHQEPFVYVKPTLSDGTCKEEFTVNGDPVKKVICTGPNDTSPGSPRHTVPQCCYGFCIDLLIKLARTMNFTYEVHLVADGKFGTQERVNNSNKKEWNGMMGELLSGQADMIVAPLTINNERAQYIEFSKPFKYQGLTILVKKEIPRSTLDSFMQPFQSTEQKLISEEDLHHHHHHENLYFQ
T2 sequence (chain, as listed by the source limits assumed): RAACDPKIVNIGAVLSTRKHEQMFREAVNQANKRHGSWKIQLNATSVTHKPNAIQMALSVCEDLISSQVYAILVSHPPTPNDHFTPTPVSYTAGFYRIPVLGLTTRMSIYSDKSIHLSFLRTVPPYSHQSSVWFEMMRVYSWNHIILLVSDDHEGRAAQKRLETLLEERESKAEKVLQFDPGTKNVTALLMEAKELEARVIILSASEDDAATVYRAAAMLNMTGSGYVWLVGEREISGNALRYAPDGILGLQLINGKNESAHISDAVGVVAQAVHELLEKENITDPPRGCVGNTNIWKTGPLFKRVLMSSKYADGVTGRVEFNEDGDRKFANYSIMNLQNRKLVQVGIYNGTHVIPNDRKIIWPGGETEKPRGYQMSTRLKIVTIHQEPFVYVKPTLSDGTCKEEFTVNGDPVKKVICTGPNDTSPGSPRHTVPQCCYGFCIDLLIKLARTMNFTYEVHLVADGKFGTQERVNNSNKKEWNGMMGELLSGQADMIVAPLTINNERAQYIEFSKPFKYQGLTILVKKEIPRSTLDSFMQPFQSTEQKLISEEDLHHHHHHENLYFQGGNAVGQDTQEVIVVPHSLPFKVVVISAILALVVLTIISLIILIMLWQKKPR

Row | binding result [1] | Percent GluN1 positive 293T-ATD cells bound [2] [%] | double positive cells [2] [%] | Binder
1 | binds | 58.8 | 40.5 | mAb 2G6 (antibody, V domains shown, Human IgG lambda mAb from a hybridoma of an ANRE patient; Biotinylated or CypHer5E-labelled in some assays; also called 2C6; 2G6-biotin) VH: QVQLQESGGGVVQPGRSLRLSCAASGFSFNAFAMHWVRQAPGKGLEWVARISHYGSDDYYADSVKGRFTISRDNSQNTLFLQMNSLKAEDTGVYYCWRGFTLVRGVISRNPINRFSGMDVWGQGTTVTVS VL: SYELMQPPSVSVSPGQTARITCSGDALPKKYAYWYQQKSGQAPILVIYEDNKRPSGIPERFSGSSSGTMATLTISGAQVEDEADYFCYSTDSSGNHGVFGGGTKLTVL
2 | binds | 90.5 | 62.3 | mAb 5F5 (antibody, V domains shown, Biotinylated or CypHer5E-labelled in some assays; also called SFS; 5G5) VH: QVQLVESGGGVVRPGGSLRLSCAASGFTFSTYSLHWVRQAPGKGLEWVGVILYDGSKKYYADSVRGRFTISRDNSKSTLNLDMSSLRPDDTAVYYCARDPIAVAPRPSGMVPQGFDYWGQGTLVTVSS VL: QSVVTQPPSASGTPGQRVTISCSGSSSNIGRNFVFWYRQLPGTAPKVLIYKNIQRPSGVPDRISGSRSGSSASLAISGLRSEDEADYYCASWDDSLSGVVFGGGTKLTVL
3 | binds | 53.7 | 37 | mAb 1D1 (antibody, V domains shown, Human IgG mAb from an ANRE patient; also called 1G1; 1DA) VH: LVQLVESGGGVVQSGRSLRLSCAASGFAFHTFTIHWVRQAPGKGLDWVTAIYFDGTKKYYADSVKGRFTVSRDNSKNTVYLQMNGLRGEDTAVYYCARARYSYGLSFDYWGQGTPVTVSS VL: QSVVTQPPSVSAAPGQKVTISCSASSSYLGSNYVSWYQQLPGTAPKLLIYDNNKRSSGISDRFSGSKSGTSATLDITGLQTGDEADYYCGAWDSSLSVVVFGGGTKLTVL

— US20220073611A1 (LANKENAU INSTITUTE FOR MEDICAL RESEARCH, published 2022)
